Laboratory results from paper PMC10673981.

Biological target: retinal guanylate cyclase GC1, eGFP fusion (mGFP-GC1 cells) (human) (UniProt Q02846)
Sequence of UniProt Q02846 (Q02846 52-1103): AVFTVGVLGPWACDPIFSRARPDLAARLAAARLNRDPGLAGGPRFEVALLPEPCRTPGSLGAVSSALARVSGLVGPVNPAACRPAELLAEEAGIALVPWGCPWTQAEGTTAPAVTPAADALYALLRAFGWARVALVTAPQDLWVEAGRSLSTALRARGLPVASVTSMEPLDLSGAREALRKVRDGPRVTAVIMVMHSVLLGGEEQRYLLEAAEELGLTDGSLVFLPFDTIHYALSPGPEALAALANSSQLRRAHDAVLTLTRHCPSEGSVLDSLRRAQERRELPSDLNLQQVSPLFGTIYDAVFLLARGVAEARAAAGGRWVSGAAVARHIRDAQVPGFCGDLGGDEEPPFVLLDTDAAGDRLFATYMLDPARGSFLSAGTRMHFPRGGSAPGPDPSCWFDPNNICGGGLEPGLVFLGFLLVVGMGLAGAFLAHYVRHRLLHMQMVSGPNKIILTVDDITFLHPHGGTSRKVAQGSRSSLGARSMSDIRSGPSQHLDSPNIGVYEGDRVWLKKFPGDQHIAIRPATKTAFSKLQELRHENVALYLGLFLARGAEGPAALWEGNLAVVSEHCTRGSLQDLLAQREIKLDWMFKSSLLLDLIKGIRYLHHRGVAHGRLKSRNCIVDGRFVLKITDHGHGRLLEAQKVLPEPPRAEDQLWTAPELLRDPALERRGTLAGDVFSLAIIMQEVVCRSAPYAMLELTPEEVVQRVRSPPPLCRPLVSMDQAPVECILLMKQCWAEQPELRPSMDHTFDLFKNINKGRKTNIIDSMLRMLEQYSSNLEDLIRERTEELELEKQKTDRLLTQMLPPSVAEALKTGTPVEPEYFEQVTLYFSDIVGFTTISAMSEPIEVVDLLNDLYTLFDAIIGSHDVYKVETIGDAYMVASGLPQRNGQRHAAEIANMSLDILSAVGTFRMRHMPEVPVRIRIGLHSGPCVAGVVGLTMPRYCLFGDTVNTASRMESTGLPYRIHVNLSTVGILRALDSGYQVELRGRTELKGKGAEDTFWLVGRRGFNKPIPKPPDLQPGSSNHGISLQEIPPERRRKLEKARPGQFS

Substance	EC50: GCAP1 concentration (0–20 µM) at which cGMP synthesis by GC1 in HEK293 cell membranes is half-maximal, at low Ca2+ (< 19 nM)
E111V-GCAP1 (cone-rod dystrophy-associated variant of human GCAP1) (from UniProt P43080 1-201) (natural protein)	1.55 µM
Human myristoylated WT-GCAP1 (guanylate cyclase-activating protein 1) (from UniProt P43080 1-201) (natural protein)	1.88 µM
